We go through one substance from patent US20170226204A1.

In assay [1] the target is human CD7 molecule (human) (UniProt P09564). The assay can be described thus: flow cytometry on H460 cells transfected with pcDNA3.1-CD7. For orientation: A flow cytometer gives signals particle by particle.
The target is the same in assay [2]. The assay can be described thus: flow cytometry on CD7-positive Jurkat cells.
Assay [3] shares this target. Nature of the assay: flow cytometry on H460 cells transfected with pcDNA3.1-CD7. This is another data set of the same source.

Where two headings read alike, the source gives them in different places.

Chain of human CD7 molecule (human) (P09564 26-240): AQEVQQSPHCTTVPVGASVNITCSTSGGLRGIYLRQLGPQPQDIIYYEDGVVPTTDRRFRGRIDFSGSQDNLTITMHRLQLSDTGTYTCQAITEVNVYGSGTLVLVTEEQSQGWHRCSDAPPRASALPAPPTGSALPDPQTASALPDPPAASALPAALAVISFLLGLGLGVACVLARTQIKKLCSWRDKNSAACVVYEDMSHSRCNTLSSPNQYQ

Consider commercial CD7 antibody (BD CD7-PE), for which the transfection efficiency (percent of cells stained) was found to be 18.8% in assay [1] and 18% in assay [3]. In addition, the positive rate of CD7+ in assay [2] was found to be 96.6%.
